Source: US20260364215A1, “Radiopharmaceutical Compositions Targeting Ephrin Type-A Receptor 2 and Uses Thereof” (PeptiDream Inc., priority 2022, published 2026)
Where two headings read alike, the source gives them in different places. Numbered stars: 1 amine (or outer) side, 2 acyl side, 3 side chain; on linkers, the order of the positions; unused ones are H or OH. Bridge positions count the residues as written; N and C are the ends. Square brackets hold non-standard residues; d marks the D form. Side chains are listed from the residue outwards. Peptide text beside a SMILES is read from it. * marks the point of attachment. DOTA(Lu) = O=C1CN2CCN3CCN(CC(=O)*)CCN(CC2)CC(=O)[O][Lu]([O]1)[O]C(=O)C3; X4 = CC(C)(C)C[C@H](CNCCCC[C@H](N[*:1])C(=O)[*:2])N[*:3]; DOTA = O=C(O)CN1CCN(CC(=O)O)CCN(CC(=O)*)CCN(CC(=O)O)CC1; Piperazinyl(4-CH2COOH) = O=C(O)CN1CCN(*)CC1; Trp(1-Me) = Cn1cc(C[C@H](N)C(=O)O)c2ccccc21; PEG8 = NCCOCCOCCOCCOCCOCCOCCOCCOCCC(=O)O; NMe3Pal = CN[C@@H](Cc1cccnc1)C(=O)O; NMeF = CN[C@@H](Cc1ccccc1)C(=O)O; Gly(cBu) = N[C@H](C(=O)O)C1CCC1; NMeE = CN[C@@H](CCC(=O)O)C(=O)O; Aad = N[C@@H](CCCC(=O)O)C(=O)O; AEEA = NCCOCCOCC(=O)O; CO = O=C([*:1])[*:2]; βAla = NCCC(=O)O

Assays:
[1] = target: T1, Recombinant Human EphA2 Fc Protein (Homo sapiens, UniProt P29317); test: Interaction analysis (kinetics, KD) of peptides and conjugates against EphA2 by SPR, Biacore T200, single-cycle kinetics (Examples B15 and B22); format: binding
T1 construct: purchased Elabscience
T1 sequence (P29317 24-534 limits assumed): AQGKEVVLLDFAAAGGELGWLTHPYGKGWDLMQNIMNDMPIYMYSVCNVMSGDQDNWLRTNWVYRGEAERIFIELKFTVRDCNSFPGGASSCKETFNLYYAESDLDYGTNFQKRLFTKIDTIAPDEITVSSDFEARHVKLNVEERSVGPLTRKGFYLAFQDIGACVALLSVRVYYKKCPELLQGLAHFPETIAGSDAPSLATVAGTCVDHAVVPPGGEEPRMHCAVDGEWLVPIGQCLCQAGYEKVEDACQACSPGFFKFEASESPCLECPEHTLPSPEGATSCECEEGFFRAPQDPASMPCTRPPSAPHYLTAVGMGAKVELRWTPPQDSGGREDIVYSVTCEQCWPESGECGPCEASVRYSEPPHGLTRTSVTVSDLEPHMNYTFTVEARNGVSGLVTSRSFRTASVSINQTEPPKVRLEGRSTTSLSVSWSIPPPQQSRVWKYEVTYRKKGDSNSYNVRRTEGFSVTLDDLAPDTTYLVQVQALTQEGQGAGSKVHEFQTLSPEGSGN
In short: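 Biacore T200 SPR with Fc-tagged human EphA2 captured via anti-human antibody; running buffer HBS-P+ pH 7.4 with 1% DMSO, 25 °C. Five serial dilutions of peptide or conjugate run by single-cycle kinetics; KD from ka and kd after baseline subtraction.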

[2] = Plasma stability (% remaining of test compound in CD-1 (ICR) mouse plasma at 37 °C; Example C1); format: in vitro ADME; settings: for % Remaining Mouse: 0 min; for remaining at 2 h, 2 µM: pH 7.4, 120 min; for half-life at 2 µM: pH 7.4, read-out: T1/2 (min) Mouse
Experimental: Example C1. Plasma Stability
The pooled frozen CD-1 (ICR) mouse plasma was thawed in a water bath at 37 °C prior to experiment. Plasma was centrifuged at 4000 rpm for 5 min and the clots were removed if any. pH was adjusted to 7.4±0.1 if required.
Plasma (98 μL) and test compounds (2 μL, 100 μM, in DMSO) or reference compound propantheline bromide (2 μL, 100 μM in 40% v/v MeOH/H2O) were added to the individual wells of a 96-well microtiter plate in duplicate. The plate was incubated at 37 °C. During the incubation, aliquots were withdrawn at 0, 10, 30, 60, 120, and 300 minutes. 100 μL 4% H3PO4 and 800 μL of stop solution (200 ng/mL tolbutamide and 200 ng/mL labetalol in 100% CH3CN) were added to precipitate unwanted proteins. After mixing thoroughly, the quenched aliquots were centrifuged at 4,000 rpm for 20 min. Aliquots (100 μL) of supernatant were transferred to a new plate. The samples were shaken at 800 rpm for 10 min before performing LC-MS/MS analysis.
The analytes were detected by a multiple reaction monitoring method using a SCIEX Triple Quad 6500+ system equipped with an ACQUITY UPLC HSS T3 column (100 Å, 1.8 μm, 2.1 mm×30 mm). Mobile phase A: water with 0.1% formic acid; Mobile phase B: CH3CN with 0.1% formic acid.
(§1) The % remaining of test compound after incubation in plasma was calculated using the following equation:
(§2) % Remaining=100×(PAR(t)/PAR(t0)), where PAR is the peak area ratio of analyte versus internal standard (IS)

[3] = Plasma stability (% remaining and T1/2 of test compound in human plasma; Table C1); format: in vitro ADME; settings: for % Remaining Human: 0 min; for remaining at 2 h: 120 min
Experimental: as §1, §2

[4] = conjugates, Biacore T200 according to Example B15, Table B16, read-out: SPR Kd

For `CC(C)C[C@@H]1NC(=O)[C@H](CC(N)=O)NC(=O)[C@H](Cc2ccccc2)N(C)C(=O)[C@@H](C)NC(=O)CSC[C@@H](C(=O)NCCC(=O)N[C@H](CCCCNC(=O)COCCOCCNC(=O)CCOCCOCCOCCOCCOCCOCCOCCOCCNC(=O)CN2CCN(CC(=O)O)CCN(CC(=O)O)CCN(CC(=O)O)CC2)C(N)=O)NC(=O)[C@H](CCC(=O)O)NC(=O)[C@H]([C@@H](C)O)NC(=O)[C@H](Cc2cn(C)c3ccccc23)NC(=O)[C@H](C(C)C)NC(=O)[C@H](Cc2cn(C)c3ccccc23)NC(=O)[C@H](Cc2ccccc2)N(C)C(=O)[C@H](CCCC(=O)O)NC1=O.[Lu+3]` [PDC_EphA2-00001417-C306] ({CH2CO}-[dA][NMeF]NL[Aad][NMeF][Trp(1-Me)]V[Trp(1-Me)]TEC[βAla][dK]([AEEA-PEG8-DOTA])-NH2; thioether N-12), the Kd [1, 4] was 1 to 10 nM, the “% Remaining Mouse” value [2] was 100% and the remaining at 2 h, 2 µM [2] was 91%. For the same molecule, the half-life at 2 µM [2] was greater than 289 min, the half-life [3] was greater than 4.82 h and the “% Remaining Human” value [3] was 100%. For the same molecule, the remaining at 2 h [3] was 99%.

For `CC(C)C[C@@H]1NC(=O)[C@H](CC(N)=O)NC(=O)[C@H](Cc2cccnc2)N(C)C(=O)[C@@H](C)NC(=O)CSC[C@@H](C(=O)N[C@H](CCCCNC(=O)CN2CCN(CC(=O)O)CCN(CC(=O)O)CCN(CC(=O)O)CC2)C(N)=O)NC(=O)[C@H](CCCC(N)=O)NC(=O)[C@H]([C@@H](C)O)NC(=O)[C@H](Cc2cn(C)c3ccccc23)NC(=O)[C@H](CCCCNC(=O)N2CCN(CC(=O)O)CC2)NC(=O)[C@H](Cc2cn(C)c3ccccc23)NC(=O)[C@H](Cc2ccccc2)N(C)C(=O)[C@H](CCCC(N)=O)NC1=O.[Lu+3]` [PDC_EphA2-00008093-C302] ({CH2CO}-[dA][NMe3Pal]NL[Aad](NH2)[NMeF][Trp(1-Me)]K([CO-Piperazinyl(4-CH2COOH)])[Trp(1-Me)]T[Aad](NH2)C[dK](DOTA)-NH2; thioether N-12), the Kd [1, 4] was less than 1 nM, the “% Remaining Mouse” value [2] was 100.0% and the remaining at 2 h, 2 µM [2] was 101%. The half-life at 2 µM [2] was greater than 289 min, the half-life [3] was greater than 4.82 h and the “% Remaining Human” value [3] was 100.0%. It also gave a remaining at 2 h [3] of 102%.

With `CC(C)C[C@@H]1NC(=O)[C@H](CC(N)=O)NC(=O)[C@H](Cc2cccnc2)N(C)C(=O)[C@@H](C)NC(=O)CSC[C@@H](C(=O)N[C@H](CCCCNC(=O)CN(C)C(=O)CN(C)C(=O)CN(C)C(=O)CN(C)C(=O)CN(C)C(=O)CN(C)C(=O)CN(C)C(=O)CN(C)C(=O)CN(C)C(=O)CN(C)C(=O)CCNC(=O)CN2CCN(CC(=O)O)CCN(CC(=O)O)CCN(CC(=O)O)CC2)C(N)=O)NC(=O)[C@H](CCCC(N)=O)NC(=O)[C@H]([C@@H](C)O)NC(=O)[C@H](Cc2cn(C)c3ccccc23)NC(=O)[C@H](CCCCNC(=O)N2CCN(CC(=O)O)CC2)NC(=O)[C@H](Cc2cn(C)c3ccccc23)NC(=O)[C@H](Cc2ccccc2)N(C)C(=O)[C@H](CCCC(N)=O)NC1=O.[Lu+3]` [PDC_EphA2-00008093-C310] the Kd [1, 4] was less than 1 nM, the “% Remaining Mouse” value [2] was 100.0% and the remaining at 2 h, 2 µM [2] was 107%. The half-life at 2 µM [2] was greater than 289 min, the half-life [3] was greater than 4.82 h and the “% Remaining Human” value [3] was 100.0%. The remaining at 2 h [3] was 99%.

Molecule `C[C@H]1NC(=O)CSC[C@@H](C(N)=O)NC(=O)[C@H](CCCCNC[C@@H](CC(C)(C)C)NC(=O)CN2CCN3CCN4CCN(CC2)CC(=O)[O][Lu]([O]C(=O)C3)[O]C(=O)C4)NC(=O)[C@H]([C@@H](C)O)NC(=O)[C@H](Cc2cn(C)c3ccccc23)NC(=O)[C@H](CCCCNC(=O)N2CCN(CC(=O)O)CC2)NC(=O)[C@H](Cc2cn(C)c3ccccc23)NC(=O)[C@H](CCC(=O)O)N(C)C(=O)[C@H](CCCC(N)=O)NC(=O)[C@H](C2CCC2)NC(=O)[C@H](CC(N)=O)NC(=O)[C@H](Cc2cccnc2)N(C)C1=O` [PDC_EphA2-00027131] ({CH2CO}-[dA][NMe3Pal]N[Gly(cBu)][Aad](NH2)[NMeE][Trp(1-Me)]K([CO-Piperazinyl(4-CH2COOH)])[Trp(1-Me)]T[X4](DOTA(Lu))C-NH2; thioether N-12) has a Kd [1] of less than 1 nM.
